Test results: US20130209454A1
Numbering of substitutions follows the chain as printed. Numbers in names are those of the source.

Assays:
Assay in all cases: cell-based or functional assay
[1] = biological target: HIV-1 Env of strain SC05_8C11_2344 (HIV-1)
[2] = biological target: HIV-1 Env of strain CNE52 (HIV-1)
[3] = biological target: HIV-1 Env of strain X2088_c9 (HIV-1)
[4] = biological target: HIV-1 Env of strain BJOX015000.11.5 (HIV-1)
[5] = biological target: HIV-1 Env of strain CNE19 (HIV-1)
[6] = biological target: HIV-1 Env of strain CNE8 (HIV-1)
[7] = biological target: HIV-1 Env of strain 7030102001E5(Rev) (HIV-1)
[8] = biological target: HIV-1 Env of strain 6545.v4.c1 (HIV-1)
[9] = biological target: HIV-1 Env of strain 1012_11_TC21_3257 (HIV-1)
[10] = biological target: HIV-1 Env of strain 0260.v5.c36 (HIV-1)
[11] = biological target: HIV-1 Env of strain 263-8 (HIV-1)
[12] = biological target: Env of HIV-1 strain C1080.c03 (HIV-1)
[13] = biological target: Env of HIV-1 strain Du156.12 (HIV-1)
[14] = biological target: Env of HIV-1 strain 1006_11_C3_1601 (HIV-1)
[15] = biological target: Env of HIV-1 strain SC422661.8 (HIV-1)
[16] = biological target: Env of HIV-1 strain AC10.0.29 (HIV-1)
[17] = biological target: Env of HIV-1 strain CNE17 (HIV-1)
[18] = biological target: Env of HIV-1 strain Ce1086_B2 (HIV-1)
[19] = biological target: Env of HIV-1 strain CNE30 (HIV-1)
[20] = biological target: Env of HIV-1 strain 928-28 (HIV-1)
[21] = biological target: Env of HIV-1 strain CNE19 (HIV-1)
[22] = biological target: Env of HIV-1 strain HIV-001428-2.42 (HIV-1)
[23] = biological target: Env of HIV-1 strain CNE58 (HIV-1)
[24] = biological target: Env of HIV-1 strain 263-8 (HIV-1)
[25] = biological target: Env of HIV-1 strain Ce1176_A3 (HIV-1)
[26] = biological target: Env of HIV-1 strain HIV-16055-2.3 (HIV-1)
[27] = biological target: Env of HIV-1 strain C4118.c09 (HIV-1)
[28] = biological target: Env of HIV-1 strain 211-9 (HIV-1)
[29] = biological target: Env of HIV-1 strain REJO4541.67 (HIV-1)
[30] = biological target: Env of HIV-1 strain 191955_A11 (HIV-1)
[31] = biological target: Env of HIV-1 strain HIV-0013095-2.11 (HIV-1)
[32] = biological target: Env of HIV-1 strain ZM214M.PL15 (HIV-1)
[33] = biological target: Env of HIV-1 strain WEAU_d15_410_787 (HIV-1)
[34] = biological target: Env of HIV-1 strain T257-31 (HIV-1)
[35] = biological target: Env of HIV-1 strain 6540.v4.c1 (HIV-1)
[36] = biological target: Env of HIV-1 strain 191084 B7-19 (HIV-1)
[37] = biological target: Env of HIV-1 strain BJOX025000.01.1 (HIV-1)
[38] = biological target: Env of HIV-1 strain 231965.c01 (HIV-1)
[39] = biological target: Env of HIV-1 strain ZM247v1(Rev-) (HIV-1)
[40] = biological target: Env of HIV-1 strain QH0692.42 (HIV-1)
[41] = biological target: Env of HIV-1 strain TRO.11 (HIV-1)
[42] = biological target: Env of HIV-1 strain 6244_13_B5_4576 (HIV-1)
[43] = biological target: Env of HIV-1 strain 6041.v3.c23 (HIV-1)
[44] = biological target: Env of HIV-1 strain CNE8 (HIV-1)
[45] = biological target: Env of HIV-1 strain 6811.v7.c18 (HIV-1)
[46] = biological target: Env of HIV-1 strain Ce0682_E4 (HIV-1)
[47] = biological target: Env of HIV-1 strain BJOX015000.11.5 (HIV-1)
[48] = biological target: Env of HIV-1 strain Ce2010_F5 (HIV-1)
[49] = biological target: Env of HIV-1 strain CNE21 (HIV-1)
[50] = biological target: Env of HIV-1 strain MS208.A1 (HIV-1)
[51] = biological target: Env of HIV-1 strain Du172.17 (HIV-1)

B1: NIH45-46^G54W(HC), S28Y(LC) (antibody, V domains shown)
VH: QVRLSQSGGQMKKPGESMRLSCRASGYEFLNCPINWIRLAPGRRPEWMGWLKPRWGAVNYARKFQGRVTMTRDVYSDTAFLELRSLTSDDTAVYFCTRGKYCTARDYYNWDFEHWGRGAPVTVSS
VL: EIVLTQSPATLSLSPGETAIISCRTSQYGSLAWYQQRPGQAPRLVIYSGSTRAAGIPDRFSGSRWGADYNLSISNLESGDFGVYYCQQYEFFGQGTKVQVDI
[1]
  IC50, pseudovirus neutralization: 0.07 µg/mL
[2]
  IC50, pseudovirus neutralization: 0.004 µg/mL
[3]
  IC50, pseudovirus neutralization: 44.3 µg/mL
[4]
  IC50, pseudovirus neutralization: 0.039 µg/mL
[5]
  IC50, pseudovirus neutralization: 0.022 µg/mL
[6]
  IC50, pseudovirus neutralization: 0.038 µg/mL
[7]
  IC50, pseudovirus neutralization: 0.038 µg/mL
[8]
  IC50, pseudovirus neutralization: 15.2 µg/mL
[9]
  IC50, pseudovirus neutralization: 0.001 µg/mL
[10]
  IC50, pseudovirus neutralization: 0.032 µg/mL
[11]
  IC50, pseudovirus neutralization: 0.018 µg/mL

B2: NIH45-46^G54W (antibody, V domains shown)
VH: B1 VH
VL: B1 VL with Y28S
[12]
  IC80: 0.91 µg/mL
[13]
  IC80: 0.005 µg/mL
[14]
  IC80: 0.008 µg/mL
[1]
  IC50, pseudovirus neutralization: 0.021 µg/mL
[15]
  IC80: 0.07 µg/mL
[16]
  IC80: 0.63 µg/mL
[2]
  IC50, pseudovirus neutralization: 0.01 µg/mL
[3]
  IC50, pseudovirus neutralization: > 50 µg/mL
[17]
  IC80: 0.127 µg/mL
[18]
  IC80: 0.091 µg/mL
[19]
  IC80: 0.196 µg/mL
[20]
  IC80: 0.25 µg/mL
[21]
  IC80: 0.028 µg/mL
[22]
  IC80: 0.001 µg/mL
[23]
  IC80: 0.05 µg/mL
[24]
  IC80: 0.025 µg/mL
[25]
  IC80: 0.45 µg/mL
[26]
  IC80: 0.024 µg/mL
[27]
  IC80: 0.087 µg/mL
[4]
  IC50, pseudovirus neutralization: 0.048 µg/mL
[28]
  IC80: > 50 µg/mL
[29]
  IC80: 0.013 µg/mL
[30]
  IC80: 0.076 µg/mL
[31]
  IC80: 0.027 µg/mL
[32]
  IC80: 0.15 µg/mL
[33]
  IC80: 0.003 µg/mL
[34]
  IC80: 0.45 µg/mL
[35]
  IC80: > 50 µg/mL
[36]
  IC80: 0.026 µg/mL
[37]
  IC80: 0.135 µg/mL
[5]
  IC50, pseudovirus neutralization: 0.002 µg/mL
[38]
  IC80: 0.035 µg/mL
[39]
  IC80: 2.6 µg/mL
[40]
  IC80: 1.12 µg/mL
[41]
  IC80: 0.13 µg/mL
[42]
  IC80: 0.095 µg/mL
[43]
  IC80: 0.001 µg/mL
[6]
  IC50, pseudovirus neutralization: 0.055 µg/mL
[44]
  IC80: 0.24 µg/mL
[7]
  IC50, pseudovirus neutralization: 0.042 µg/mL
[45]
  IC80: 0.033 µg/mL
[8]
  IC50, pseudovirus neutralization: 18.9 µg/mL
[46]
  IC80: 0.039 µg/mL
[47]
  IC80: 0.239 µg/mL
[48]
  IC80: 0.187 µg/mL
[49]
  IC80: 0.16 µg/mL
[50]
  IC80: 0.17 µg/mL
[9]
  IC50, pseudovirus neutralization: 0.001 µg/mL
[10]
  IC50, pseudovirus neutralization: 0.117 µg/mL
[51]
  IC80: 42.9 µg/mL
[11]
  IC50, pseudovirus neutralization: 0.001 µg/mL

B3: NIH45-46^G54W(HC) S28Y(LC) (antibody, V domains shown)
VH: B1 VH
VL: B1 VL
[12]
  IC80: 0.589 µg/mL
[13]
  IC80: 0.024 µg/mL
[14]
  IC80: 0.037 µg/mL
[15]
  IC80: 0.09 µg/mL
[16]
  IC80: 0.554 µg/mL
[17]
  IC80: 0.254 µg/mL
[18]
  IC80: 0.042 µg/mL
[19]
  IC80: 0.239 µg/mL
[20]
  IC80: 0.159 µg/mL
[21]
  IC80: 0.102 µg/mL
[22]
  IC80: 0.002 µg/mL
[23]
  IC80: 0.042 µg/mL
[24]
  IC80: 0.067 µg/mL
[25]
  IC80: 0.467 µg/mL
[26]
  IC80: 0.017 µg/mL
[27]
  IC80: 0.058 µg/mL
[28]
  IC80: 0.898 µg/mL
[29]
  IC80: 0.01 µg/mL
[30]
  IC80: 0.046 µg/mL
[31]
  IC80: 0.017 µg/mL
[32]
  IC80: 0.258 µg/mL
[33]
  IC80: 0.027 µg/mL
[34]
  IC80: 0.471 µg/mL
[35]
  IC80: > 50 µg/mL
[36]
  IC80: 0.016 µg/mL
[37]
  IC80: 0.211 µg/mL
[38]
  IC80: 0.035 µg/mL
[39]
  IC80: 0.034 µg/mL
[40]
  IC80: 0.622 µg/mL
[41]
  IC80: 0.079 µg/mL
[42]
  IC80: 0.109 µg/mL
[43]
  IC80: 0.003 µg/mL
[44]
  IC80: 0.156 µg/mL
[45]
  IC80: 0.11 µg/mL
[46]
  IC80: 0.031 µg/mL
[47]
  IC80: 0.308 µg/mL
[48]
  IC80: 0.133 µg/mL
[49]
  IC80: 0.047 µg/mL
[50]
  IC80: 0.089 µg/mL
[51]
  IC80: 0.125 µg/mL
